Assay results: paper PMC3731272, “Evidence for a Novel Mechanism of the PAK1 Interaction with the Rho-GTPases Cdc42 and Rac” (PLoS ONE, 2013)

Molecular target: T1, GFP-PAK1^S79A (UniProt Q13153 1-545, S79A)
T1 construct: source: 293T cells, expressed, in cell extract / lysate
Experiment: co-IP; GFP-PAK1 (WT or S79A) coexpressed with Myc-Cdc42 in 293T cells; extracts immunoprecipitated with anti-GFP, blotted with anti-Myc; lysis buffer 50 mM HEPES pH 7.4, 150 mM NaCl, 1 mM EDTA, 10% glycerol, 1% Triton X100 with phosphatase inhibitors; antibodies overnight at 4°C
Conditions: partners not purified

T1 sequence (Q13153 whole entry S79A): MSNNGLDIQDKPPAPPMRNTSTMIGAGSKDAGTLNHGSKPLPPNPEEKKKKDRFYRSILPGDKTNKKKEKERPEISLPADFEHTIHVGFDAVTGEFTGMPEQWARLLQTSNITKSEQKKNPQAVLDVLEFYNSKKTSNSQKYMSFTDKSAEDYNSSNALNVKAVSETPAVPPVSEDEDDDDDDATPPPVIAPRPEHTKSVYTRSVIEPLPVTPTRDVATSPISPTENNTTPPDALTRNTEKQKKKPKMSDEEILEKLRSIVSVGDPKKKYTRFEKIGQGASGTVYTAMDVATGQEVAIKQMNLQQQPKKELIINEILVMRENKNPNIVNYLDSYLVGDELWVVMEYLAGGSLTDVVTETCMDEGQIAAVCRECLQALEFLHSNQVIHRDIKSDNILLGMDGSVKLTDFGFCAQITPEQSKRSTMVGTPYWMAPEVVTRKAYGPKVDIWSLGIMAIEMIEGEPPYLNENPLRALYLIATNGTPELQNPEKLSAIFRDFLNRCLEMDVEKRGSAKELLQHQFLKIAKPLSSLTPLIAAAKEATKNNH

B1: Myc-Cdc42 (natural protein)
chain: not shown
notes: Rho GTPase Cdc42; source: 293T cells, coexpressed, in cell extract
**Q.** How did the “fold reduction of binding against wild type PAK1” value turn out when B1 was run?
**A.** ~3 fold
